Key:
Assay in all cases: cell-based or functional assay
[1] = target: HIV-1 Env of isolate SF162 (HIV-1) (UniProt P19550)
[2] = target: HIV-1 Env of isolate QH0692.42 (HIV-1)
[3] = target: HIV-1 Env of isolate TRO.11 (HIV-1)
[4] = target: HIV-1 Env of isolate MGRM-D-018 (HIV-1)
[5] = target: HIV-1 Env of isolate MGRM-F1-012 (HIV-1)
[6] = target: HIV-1 Env of isolate MGRM-D-028 (HIV-1)
[7] = target: HIV-1 Env of isolate 97ZA012 (HIV-1)
[8] = target: HIV-1 Env of isolate MGRM-D-016 (HIV-1)
[9] = target: HIV-1 Env of isolate MGRM-Chronic-B-018 (HIV-1)
[10] = target: HIV-1 Env of isolate MGRM-D-022 (HIV-1)
[11] = target: HIV-1 Env of isolate TRJ04551.58 (HIV-1)
[12] = target: HIV-1 Env of isolate MGRM-D-019 (HIV-1)
[13] = target: HIV-1 Env of isolate MGRM-D-024 (HIV-1)
[14] = target: HIV-1 Env of isolate MGRM-D-026 (HIV-1)
[15] = target: HIV-1 Env of isolate MGRM-F1-006 (HIV-1)
[16] = target: HIV-1 Env of isolate 98IN022 (HIV-1)
[17] = target: HIV-1 Env of isolate MGRM-D-020 (HIV-1)
[18] = target: HIV-1 Env of isolate NL43 (HIV-1)
[19] = target: HIV-1 Env of isolate MGRM-D-029 (HIV-1)
[20] = target: HIV-1 Env of isolate MGRM-D-014 (HIV-1)
[21] = target: HIV-1 Env of isolate MGRM-Chronic-B-023 (HIV-1)
[22] = target: HIV-1 Env of isolate MGRM-Chronic-B-017 (HIV-1)
[23] = target: HIV-1 Env of isolate MGRM-F1-022 (HIV-1)
[24] = target: HIV-1 Env of isolate MGRM-F1-018 (HIV-1)
[25] = target: HIV-1 Env of isolate MGRM-Chronic-B-011 (HIV-1)
[26] = target: HIV-1 Env of isolate MGRM-Chronic-B-024 (HIV-1)
[27] = target: HIV-1 Env of isolate MGRM-Chronic-B-012 (HIV-1)
[28] = target: HIV-1 Env of isolate MGRM-F1-014 (HIV-1)
[29] = target: HIV-1 Env of isolate 93IN905 (HIV-1)
[30] = target: HIV-1 Env of isolate MGRM-D-011 (HIV-1)
[31] = target: HIV-1 Env of isolate MGRM-D-013 (HIV-1)
[32] = target: HIV-1 Env of isolate MGRM-F1-023 (HIV-1)
[33] = target: HIV-1 Env of isolate JRCSF (HIV-1) (UniProt P20871)
[34] = target: HIV-1 Env of isolate 93MW959 (HIV-1)
[35] = target: HIV-1 Env of isolate MGRM-F1-020 (HIV-1)
[36] = target: HIV-1 Env of isolate MGRM-F1-017 (HIV-1)
[37] = target: HIV-1 Env of isolate MGRM-D-012 (HIV-1)
[38] = target: HIV-1 Env of isolate PVO.4 (HIV-1)
[39] = target: HIV-1 Env of isolate MGRM-Chronic-B-010 (HIV-1)
[40] = target: HIV-1 Env of isolate MGRM-F1-021 (HIV-1)
[41] = target: HIV-1 Env of isolate VLGCB3 (HIV-1)
[42] = target: HIV-1 Env of isolate MGRM-D-021 (HIV-1)
[43] = target: HIV-1 Env of isolate MGRM-Chronic-B-020 (HIV-1)
[44] = target: HIV-1 Env of isolate MGRM-F1-010 (HIV-1)
[45] = target: HIV-1 Env of isolate THR0.18 (HIV-1)
[46] = target: HIV-1 Env of isolate MGRM-F1-016 (HIV-1)
[47] = target: HIV-1 Env of isolate MGRM-F1-004 (HIV-1)
[48] = target: HIV-1 Env of isolate SC422661.8 (HIV-1)
[49] = target: HIV-1 Env of isolate MGRM-F1-015 (HIV-1)
[50] = target: HIV-1 Env of isolate MGRM-F1-013 (HIV-1)
[51] = target: HIV-1 Env of isolate MGRM-F1-008 (HIV-1)
[52] = target: HIV-1 Env of isolate 92TH021 (HIV-1)
[53] = target: HIV-1 Env of isolate MGRM-C-026 (HIV-1)

Chain of PGT-143 (antibody) (VH): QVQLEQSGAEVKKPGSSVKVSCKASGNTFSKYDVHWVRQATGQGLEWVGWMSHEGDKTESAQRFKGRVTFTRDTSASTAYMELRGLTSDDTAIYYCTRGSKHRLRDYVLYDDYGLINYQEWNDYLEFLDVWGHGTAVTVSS
Chain of PGT-143 (antibody) (VL): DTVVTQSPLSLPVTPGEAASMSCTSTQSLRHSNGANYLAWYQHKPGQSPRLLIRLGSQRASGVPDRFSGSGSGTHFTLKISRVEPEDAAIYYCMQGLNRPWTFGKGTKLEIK

## PGT-143 (antibody)
[1]
  neutralization IC50: > 50 µg/mL
[2]
  neutralization IC50: > 50 µg/mL
[3]
  neutralization IC50: 0.219 µg/mL
[4]
  IC50, pseudovirus neutralization: > 50 µg/mL
[5]
  IC50, pseudovirus neutralization: > 50 µg/mL
[6]
  IC50, pseudovirus neutralization: > 50 µg/mL
[7]
  neutralization IC50: > 50 µg/mL
[8]
  IC50, pseudovirus neutralization: > 50 µg/mL
[9]
  neutralization IC50: 0.377 µg/mL
[10]
  IC50, pseudovirus neutralization: > 50 µg/mL
[11]
  neutralization IC50: > 50 µg/mL
[12]
  IC50, pseudovirus neutralization: 0.277 µg/mL
[13]
  IC50, pseudovirus neutralization: > 50 µg/mL
[14]
  IC50, pseudovirus neutralization: 44.6 µg/mL
[15]
  IC50, pseudovirus neutralization: 12.3 µg/mL
[16]
  neutralization IC50: 0.001 µg/mL
[17]
  IC50, pseudovirus neutralization: > 50 µg/mL
[18]
  neutralization IC50: > 50 µg/mL
[19]
  IC50, pseudovirus neutralization: 0.2 µg/mL
[20]
  IC50, pseudovirus neutralization: 0.009 µg/mL
[21]
  neutralization IC50: 0.236 µg/mL
[22]
  neutralization IC50: 0.145 µg/mL
[23]
  IC50, pseudovirus neutralization: 0.082 µg/mL
[24]
  IC50, pseudovirus neutralization: 0.701 µg/mL
[25]
  neutralization IC50: 1.56 µg/mL
[26]
  neutralization IC50: 0.01 µg/mL
[27]
  neutralization IC50: > 50 µg/mL
[28]
  IC50, pseudovirus neutralization: 0.001 µg/mL
[29]
  neutralization IC50: 0.002 µg/mL
[30]
  IC50, pseudovirus neutralization: > 50 µg/mL
[31]
  IC50, pseudovirus neutralization: 0.386 µg/mL
[32]
  IC50, pseudovirus neutralization: 0.972 µg/mL
[33]
  neutralization IC50: 0.007 µg/mL
[34]
  neutralization IC50: 0.002 µg/mL
[35]
  IC50, pseudovirus neutralization: 0.98 µg/mL
[36]
  IC50, pseudovirus neutralization: 26.3 µg/mL
[37]
  IC50, pseudovirus neutralization: > 50 µg/mL
[38]
  neutralization IC50: 0.162 µg/mL
[39]
  neutralization IC50: > 50 µg/mL
[40]
  IC50, pseudovirus neutralization: > 50 µg/mL
[41]
  neutralization IC50: > 50 µg/mL
[42]
  IC50, pseudovirus neutralization: > 50 µg/mL
[43]
  neutralization IC50: > 50 µg/mL
[44]
  IC50, pseudovirus neutralization: > 50 µg/mL
[45]
  neutralization IC50: 0.016 µg/mL
[46]
  IC50, pseudovirus neutralization: > 50 µg/mL
[47]
  IC50, pseudovirus neutralization: 0.036 µg/mL
[48]
  neutralization IC50: 2.02 µg/mL
[49]
  IC50, pseudovirus neutralization: > 50 µg/mL
[50]
  IC50, pseudovirus neutralization: 0.013 µg/mL
[51]
  IC50, pseudovirus neutralization: 0.189 µg/mL

## PGT-132 (B cell culture well 5113_D22) (antibody)
[33]
  Primary Neutralization Index (B cell culture well 5113 D22): 3
[52]
  Primary Neutralization Index (B cell culture well 5113 D22): 51
[53]
  Primary Neutralization Index (B cell culture well 5113 D22): 6

## PGT-133 (B cell culture well 5117_E22) (antibody)
[33]
  Primary Neutralization Index (B cell culture well 5117 E22): 3.6
[52]
  Primary Neutralization Index (B cell culture well 5117 E22): 42.5
[53]
  Primary Neutralization Index (B cell culture well 5117 E22): 3.4

From patent US20200024330A1
